In paper PMC11873960, “Coupled Heterogeneity to Dimeric Site-Specific Binding by the POU-Family Transcription Factor OCT2” (The Journal of Physical Chemistry. B, 2025):

T1: OCT2 DBD (POU domain) (Homo sapiens, UniProt P09086 195-357)
T1 sequence: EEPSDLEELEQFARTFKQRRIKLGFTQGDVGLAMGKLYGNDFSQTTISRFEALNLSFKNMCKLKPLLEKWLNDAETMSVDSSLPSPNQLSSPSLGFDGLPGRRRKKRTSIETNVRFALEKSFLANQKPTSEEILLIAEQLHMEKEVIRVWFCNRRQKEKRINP

B1: MORE 22-bp, HEX-labelled (dsDNA)
DNA 1: TCCTCATGCATATGCATGAGGA
DNA 2: TCCTCATGCATATGCATGAGGA
B2: OCT2 DBD (DNA-binding domain, POU domain, of human POU factor OCT2) (domain or fragment, UniProt P09086 195-357, looked up)
chain: T1 sequence
notes: Cloned into NdeI/BamHI of pET15b; residues of the vector may be left at the N-terminus after thrombin cleavage (surmised); the linker is not resolved in the structure; also called POU2F2; OCT DBD; source: E. coli BL21(DE3)pLysS, purified (Ni-NTA, thrombin cleavage, Sepharose SP, Superdex 75); not shown: His6, N-terminal, cleaved

Legend:
OCT2 DBD (POU domain) [1] = biological target: T1, OCT2 DBD (POU domain); test: fluorescence anisotropy; 0.30 M Na+, no poly[d(I-C)]; FP: 5 nM probe, 10 mM Bis-Tris pH 6.5, 0.01% BSA, 0.15-0.35 M NaCl, 25 C overnight, Hill fit with nH = 2 (macroscopic KD of dimer); EMSA: 10 nM DNA, PBS, 25 C o; conditions: protein: recombinant; tags: N-terminal His6 removed by thrombin; chain copies: 2; label: 5'-HEX; blunt; self-complementary, 2 copies of the strand
OCT2 DBD (POU domain) [2] = biological target: T1, OCT2 DBD (POU domain); test: fluorescence anisotropy; 0.35 M Na+, no poly[d(I-C)]; FP: 5 nM probe, 10 mM Bis-Tris pH 6.5, 0.01% BSA, 0.15-0.35 M NaCl, 25 C overnight, Hill fit with nH = 2 (macroscopic KD of dimer); EMSA: 10 nM DNA, PBS, 25 C o; conditions: protein: recombinant; tags: N-terminal His6 removed by thrombin; chain copies: 2; label: 5'-HEX; blunt; self-complementary, 2 copies of the strand
OCT2 DBD (POU domain) [3] = biological target: T1, OCT2 DBD (POU domain); test: fluorescence anisotropy; 0.20 M Na+, no poly[d(I-C)]; FP: 5 nM probe, 10 mM Bis-Tris pH 6.5, 0.01% BSA, 0.15-0.35 M NaCl, 25 C overnight, Hill fit with nH = 2 (macroscopic KD of dimer); EMSA: 10 nM DNA, PBS, 25 C o; conditions: protein: recombinant; tags: N-terminal His6 removed by thrombin; chain copies: 2; label: 5'-HEX; blunt; self-complementary, 2 copies of the strand
OCT2 DBD (POU domain) [4] = biological target: T1, OCT2 DBD (POU domain); test: fluorescence anisotropy; 0.175 M Na+, 1 U poly[d(I-C)]; FP: 5 nM probe, 10 mM Bis-Tris pH 6.5, 0.01% BSA, 0.15-0.35 M NaCl, 25 C overnight, Hill fit with nH = 2 (macroscopic KD of dimer); EMSA: 10 nM DNA, PBS, 25 C o; conditions: protein: recombinant; tags: N-terminal His6 removed by thrombin; chain copies: 2; label: 5'-HEX; blunt; self-complementary, 2 copies of the strand
OCT2 DBD (POU domain) [5] = biological target: T1, OCT2 DBD (POU domain); test: fluorescence anisotropy; 0.35 M Na+, 1 U poly[d(I-C)]; text gives 0.18 +/- 0.06 uM; FP: 5 nM probe, 10 mM Bis-Tris pH 6.5, 0.01% BSA, 0.15-0.35 M NaCl, 25 C overnight, Hill fit with nH = 2 (macroscopic KD of dimer); EMSA: 10 nM DNA, PBS, 25 C o; conditions: protein: recombinant; tags: N-terminal His6 removed by thrombin; chain copies: 2; label: 5'-HEX; blunt; self-complementary, 2 copies of the strand
OCT2 DBD (POU domain) [6] = biological target: T1, OCT2 DBD (POU domain); test: fluorescence anisotropy; 0.25 M Na+, no poly[d(I-C)]; FP: 5 nM probe, 10 mM Bis-Tris pH 6.5, 0.01% BSA, 0.15-0.35 M NaCl, 25 C overnight, Hill fit with nH = 2 (macroscopic KD of dimer); EMSA: 10 nM DNA, PBS, 25 C o; conditions: protein: recombinant; tags: N-terminal His6 removed by thrombin; chain copies: 2; label: 5'-HEX; blunt; self-complementary, 2 copies of the strand
OCT2 DBD (POU domain) [7] = biological target: T1, OCT2 DBD (POU domain); test: fluorescence anisotropy; 0.15 M Na+, 1 U poly[d(I-C)]; FP: 5 nM probe, 10 mM Bis-Tris pH 6.5, 0.01% BSA, 0.15-0.35 M NaCl, 25 C overnight, Hill fit with nH = 2 (macroscopic KD of dimer); EMSA: 10 nM DNA, PBS, 25 C o; conditions: protein: recombinant; tags: N-terminal His6 removed by thrombin; chain copies: 2; label: 5'-HEX; blunt; self-complementary, 2 copies of the strand
OCT2 DBD (POU domain) [8] = biological target: T1, OCT2 DBD (POU domain); test: fluorescence anisotropy; 0.30 M Na+, 1 U poly[d(I-C)]; FP: 5 nM probe, 10 mM Bis-Tris pH 6.5, 0.01% BSA, 0.15-0.35 M NaCl, 25 C overnight, Hill fit with nH = 2 (macroscopic KD of dimer); EMSA: 10 nM DNA, PBS, 25 C o; conditions: protein: recombinant; tags: N-terminal His6 removed by thrombin; chain copies: 2; label: 5'-HEX; blunt; self-complementary, 2 copies of the strand
OCT2 DBD (POU domain) [9] = biological target: T1, OCT2 DBD (POU domain); test: fluorescence anisotropy; 0.25 M Na+, 1 U poly[d(I-C)]; FP: 5 nM probe, 10 mM Bis-Tris pH 6.5, 0.01% BSA, 0.15-0.35 M NaCl, 25 C overnight, Hill fit with nH = 2 (macroscopic KD of dimer); EMSA: 10 nM DNA, PBS, 25 C o; conditions: protein: recombinant; tags: N-terminal His6 removed by thrombin; chain copies: 2; label: 5'-HEX; blunt; self-complementary, 2 copies of the strand
OCT2 DBD (POU domain) [10] = biological target: T1, OCT2 DBD (POU domain); test: fluorescence anisotropy; 0.15 M Na+, no poly[d(I-C)]; text gives 3.2 +/- 1.4 nM; FP: 5 nM probe, 10 mM Bis-Tris pH 6.5, 0.01% BSA, 0.15-0.35 M NaCl, 25 C overnight, Hill fit with nH = 2 (macroscopic KD of dimer); EMSA: 10 nM DNA, PBS, 25 C o; conditions: protein: recombinant; tags: N-terminal His6 removed by thrombin; chain copies: 2; label: 5'-HEX; blunt; self-complementary, 2 copies of the strand
OCT2 DBD (POU domain) [11] = biological target: T1, OCT2 DBD (POU domain); test: fluorescence anisotropy; 0.20 M Na+, 1 U poly[d(I-C)]; FP: 5 nM probe, 10 mM Bis-Tris pH 6.5, 0.01% BSA, 0.15-0.35 M NaCl, 25 C overnight, Hill fit with nH = 2 (macroscopic KD of dimer); EMSA: 10 nM DNA, PBS, 25 C o; conditions: protein: recombinant; tags: N-terminal His6 removed by thrombin; chain copies: 2; label: 5'-HEX; blunt; self-complementary, 2 copies of the strand
OCT2 DBD (POU domain) [12] = biological target: T1, OCT2 DBD (POU domain); test: fluorescence anisotropy; 0.175 M Na+, no poly[d(I-C)]; FP: 5 nM probe, 10 mM Bis-Tris pH 6.5, 0.01% BSA, 0.15-0.35 M NaCl, 25 C overnight, Hill fit with nH = 2 (macroscopic KD of dimer); EMSA: 10 nM DNA, PBS, 25 C o; conditions: protein: recombinant; tags: N-terminal His6 removed by thrombin; chain copies: 2; label: 5'-HEX; blunt; self-complementary, 2 copies of the strand
[13] = biological target: the molecule itself; test: native gel or EMSA; 0.2 kbp DNA fragment with a single MORE site (10 nM) incubated overnight at 25 °C with graded OCT2 DBD (2-fold dilutions from 1 uM) in PBS; 4-20% gradient polyacrylamide gel; dimer assembled on DNA

Row | Binder | Kd (OCT2 DBD (POU domain) [1]) [µM] | Kd (OCT2 DBD (POU domain) [2]) [µM] | Kd (OCT2 DBD (POU domain) [3]) [µM] | Kd (OCT2 DBD (POU domain) [4]) [µM] | Kd (OCT2 DBD (POU domain) [5]) [µM] | Kd (OCT2 DBD (POU domain) [6]) [µM] | Kd (OCT2 DBD (POU domain) [7]) [µM] | Kd (OCT2 DBD (POU domain) [8]) [µM] | Kd (OCT2 DBD (POU domain) [9]) [µM] | Kd (OCT2 DBD (POU domain) [10]) [µM] | Kd (OCT2 DBD (POU domain) [11]) [µM] | Kd (OCT2 DBD (POU domain) [12]) [µM] | stoichiometry N [13]
1 | B1 | 0.56 ± 0.1 | 1.2 ± 0.3 | 0.029 ± 0.009 | 0.011 ± 0.004 | 0.19 ± 0.06 | 0.088 ± 0.018 | 0.0055 ± 0.0013 | 0.071 ± 0.019 | 0.041 ± 0.013 | 0.0038 ± 0.0014 | 0.016 ± 0.007 | 0.0097 ± 0.0037 | –
2 | B2 | – | – | – | – | – | – | – | – | – | – | – | – | 2
